Results from patent publication US20220265842A1, “ANTI-CD40 ANTIBODY DRUG CONJUGATES” (priority 2017, published 2022).

B1: Example 12-hydrolyzed (human), n=4 (antibody, human IgG1, kappa, L234A L235A, V domains shown)
VH: EVQLVESGGGLVKPGGSLRLSCAASGFTFSDYGMNWVRQAPGKGLEWIAYISSGRGNIYYADTVKGRFTISRDNAKNSLYLQMNSLRAEDTAVYYCARSWGYFDVWGQGTTVTVSS
VL: DIVMTQSPDSLAVSLGERATINCKSSQSLLNRGNQKNYLTWFQQKPGQPPKLLIYWASTRESGVPDRFSGSGSGTDFTLTISSLQAEDVAVYYCQNDYTYPLTFGQGTKLEIKR
modifications: glucocorticoid drug-linker of Precursor Example 12 (maleimide, thiosuccinimide ring hydrolyzed) on cysteine thiols of reduced disulfides; n=4 per antibody; positions not given
B2: Example 13-hydrolyzed (human), n=4 (antibody, human IgG1, kappa, L234A L235A, V domains shown)
VH: EVQLVESGGGLVKPGGSLRLSCAASGFTFSDYGMNWVRQAPGKGLEWIAYISSGRGNIYYADTVKGRFTISRDNAKNSLYLQMNSLRAEDTAVYYCARSWGYFDVWGQGTTVTVSS
VL: DIVMTQSPDSLAVSLGERATINCKSSQSLLNRGNQKNYLTWFQQKPGQPPKLLIYWASTRESGVPDRFSGSGSGTDFTLTISSLQAEDVAVYYCQNDYTYPLTFGQGTKLEIKR
modifications: glucocorticoid drug-linker of Precursor Example 13 (maleimide, thiosuccinimide ring hydrolyzed) on cysteine thiols of reduced disulfides; n=4 per antibody; positions not given
B3: Example 28-conjugated (human), n=2 (antibody, human IgG1, kappa, L234A L235A, DAR 2, V domains shown)
VH: EVQLVESGGGLVKPGGSLRLSCAASGFTFSDYGMNWVRQAPGKGLEWIAYISSGRGNIYYADTVKGRFTISRDNAKNSLYLQMNSLRAEDTAVYYCARSWGYFDVWGQGTTVTVSS
VL: DIVMTQSPDSLAVSLGERATINCKSSQSLLNRGNQKNYLTWFQQKPGQPPKLLIYWASTRESGVPDRFSGSGSGTDFTLTISSLQAEDVAVYYCQNDYTYPLTFGQGTKLEIKR
modifications: glucocorticoid drug-linker of Precursor Example 28 (bromoacetamide) on cysteine thiols of reduced interchain disulfides; n=2 per antibody; positions not given
B4: Example 4-conjugated (human), n=4 (antibody, human IgG1, kappa, L234A L235A, DAR 4, V domains shown)
VH: EVQLVESGGGLVKPGGSLRLSCAASGFTFSDYGMNWVRQAPGKGLEWIAYISSGRGNIYYADTVKGRFTISRDNAKNSLYLQMNSLRAEDTAVYYCARSWGYFDVWGQGTTVTVSS
VL: DIVMTQSPDSLAVSLGERATINCKSSQSLLNRGNQKNYLTWFQQKPGQPPKLLIYWASTRESGVPDRFSGSGSGTDFTLTISSLQAEDVAVYYCQNDYTYPLTFGQGTKLEIKR
modifications: glucocorticoid drug-linker of Precursor Example 4 (bromoacetamide) on cysteine thiols of reduced interchain disulfides; n=4 per antibody; positions not given
B5: Human anti-CD40 antibody Ab102 (antibody, human IgG1, kappa, L234A L235A, V domains shown)
VH: EVQLVESGGGLVKPGGSLRLSCAASGFTFSDYGMNWVRQAPGKGLEWIAYISSGRGNIYYADTVKGRFTISRDNAKNSLYLQMNSLRAEDTAVYYCARSWGYFDVWGQGTTVTVSS
VL: DIVMTQSPDSLAVSLGERATINCKSSQSLLNRGNQKNYLTWFQQKPGQPPKLLIYWASTRESGVPDRFSGSGSGTDFTLTISSLQAEDVAVYYCQNDYTYPLTFGQGTKLEIKR
B6: Example 28-conjugated (human), n=4 (antibody, human IgG1, kappa, L234A L235A, DAR 4, V domains shown)
VH: EVQLVESGGGLVKPGGSLRLSCAASGFTFSDYGMNWVRQAPGKGLEWIAYISSGRGNIYYADTVKGRFTISRDNAKNSLYLQMNSLRAEDTAVYYCARSWGYFDVWGQGTTVTVSS
VL: DIVMTQSPDSLAVSLGERATINCKSSQSLLNRGNQKNYLTWFQQKPGQPPKLLIYWASTRESGVPDRFSGSGSGTDFTLTISSLQAEDVAVYYCQNDYTYPLTFGQGTKLEIKR
modifications: glucocorticoid drug-linker of Precursor Example 28 (bromoacetamide) on cysteine thiols of reduced interchain disulfides; n=4 per antibody; positions not given

Key:
[1] = target: human CD40 Transcript 1 (Myc-DDK-tagged) on HEK293 GRE reporter cells (human, UniProt P25942 21-277); experiment: cell-based or functional assay
[2] = target: human CD40 on LPS-stimulated human monocyte-derived dendritic cells (human, UniProt P25942 21-277); experiment: cell-based or functional assay
Chain of human CD40 on LPS-stimulated human monocyte-derived dendritic cells (P25942 21-277 limits assumed): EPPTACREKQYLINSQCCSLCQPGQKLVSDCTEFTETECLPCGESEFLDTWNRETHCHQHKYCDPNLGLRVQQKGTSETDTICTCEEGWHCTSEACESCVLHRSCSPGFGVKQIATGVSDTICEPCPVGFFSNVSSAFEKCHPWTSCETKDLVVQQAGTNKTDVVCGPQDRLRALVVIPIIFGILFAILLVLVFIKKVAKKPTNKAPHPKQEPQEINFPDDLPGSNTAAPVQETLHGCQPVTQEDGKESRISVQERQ

Chain of human CD40 Transcript 1 (Myc-DDK-tagged) on HEK293 GRE reporter cells (P25942 21-277): as the sequence (P25942 21-277 limits assumed) above

Binder	hCD40 GRE (% max) [1] [%]	hCD40 GRE EC50 [1] [µg/mL]	IL-6 release IC50 [2] [µg/mL]	Max Inhibition (%) [2] [%]
B1	163	0.19	0.04	99.5
B2	67	0.29	0.14	83.3
B3	90	16.5	0.03	81.8
B4	88	6.57	–	–
B5	–	–	0.18	44.5
B6	77	0.53	0.05	87.6
